The target of the assay is μ opioid receptor (MOR) (human) (UniProt P35372).
Chain of UniProt P35372 (P35372 whole entry): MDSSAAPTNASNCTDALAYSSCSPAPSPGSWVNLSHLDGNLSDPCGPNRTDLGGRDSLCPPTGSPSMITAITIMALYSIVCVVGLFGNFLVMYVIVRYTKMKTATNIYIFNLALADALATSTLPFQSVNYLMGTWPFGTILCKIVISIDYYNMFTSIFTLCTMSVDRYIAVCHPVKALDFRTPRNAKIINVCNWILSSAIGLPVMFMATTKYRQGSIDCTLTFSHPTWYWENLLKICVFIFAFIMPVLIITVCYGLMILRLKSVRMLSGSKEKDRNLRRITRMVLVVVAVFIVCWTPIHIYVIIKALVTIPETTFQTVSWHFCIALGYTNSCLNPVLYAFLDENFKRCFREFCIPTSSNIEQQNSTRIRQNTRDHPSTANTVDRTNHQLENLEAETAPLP

DAMGO (peptide) yielded a TRUPATH BRET2, Ggust activation, 0 mM sodium, pEC50 of 10.2 pEC50; a TRUPATH BRET2, Ggust activation, 140 mM sodium, pEC50 of 9.57 pEC50; a TRUPATH BRET2, Gi1 activation, 0 mM sodium, pEC50 of 9.01 pEC50; a TRUPATH BRET2, Gi1 activation, 140 mM sodium, pEC50 of 7.55 pEC50. The TRUPATH BRET2, Gi2 activation, 0 mM sodium, pEC50 was 9.97 pEC50; the TRUPATH BRET2, Gi2 activation, 140 mM sodium, pEC50 was determined as 9.17 pEC50; the TRUPATH BRET2, Gi3 activation, 0 mM sodium, pEC50 stood at 9.43 pEC50; the TRUPATH BRET2, Gi3 activation, 140 mM sodium, pEC50 worked out at 8.12 pEC50. The TRUPATH BRET2, GoA activation, 0 mM sodium, pEC50 was determined as 9.82 pEC50; the TRUPATH BRET2, GoA activation, 140 mM sodium, pEC50 turned out to be 9.08 pEC50; the TRUPATH BRET2, GoB activation, 0 mM sodium, pEC50 is 9.77 pEC50; the TRUPATH BRET2, GoB activation, 140 mM sodium, pEC50 turned out to be 8.52 pEC50. For the same substance, the TRUPATH BRET2, Gz activation, 0 mM sodium, pEC50 came to 9.66 pEC50 and the TRUPATH BRET2, Gz activation, 140 mM sodium, pEC50 came to 8.82 pEC50.

Values taken from article doi:10.1101/2025.08.28.672897.
